Biological target: RNF168 (UniProt Q8IYW5)
Assay: anti-HA co-IP, FLAG blot
Details: reference: wild-type HA-LSD1

| Substance | binding against the reference (sites S137) | binding against the reference (sites S131) |
| --- | --- | --- |
| LSD1 (from UniProt O60341) S137A | weaker |  |
| LSD1 (from UniProt O60341) S131A |  | weaker |
